Numbering of substitutions follows the chain as printed. In names and notes the source's numbering stands.
T1: VC1 domain of human RAGE (receptor for advanced glycation end products), biotinylated (human, UniProt Q15109 23-226, biotin (EZ-Link Sulfo-NHS-Biotin))
T1 chain: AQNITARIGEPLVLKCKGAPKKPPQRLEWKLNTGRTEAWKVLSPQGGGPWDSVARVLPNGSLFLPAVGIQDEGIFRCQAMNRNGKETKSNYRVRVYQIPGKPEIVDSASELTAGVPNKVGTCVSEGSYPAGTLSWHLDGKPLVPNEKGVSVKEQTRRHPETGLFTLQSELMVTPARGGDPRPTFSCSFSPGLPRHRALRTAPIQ

B1: Nb5 (VHH)
VHH: QVQLVESGGGLVQAGGSQRLSCTASGRIFSINDMGWYRQAPGDQRELVAVITSGGATNYTDSVKGRFTISRDDAKNTVYLQMNSLKPEDTAVYYCNADLRTSLKWPPVFHRYWGQGTQVTVSS
B2: Nb21 (VHH)
VHH: QVQLVESGGGLVQAGDSLRLSCAASGRTFSNYGIGWFRQAPGKEREFVARVAWSTAITKYADAVKGRFTISRDNAKNMVYLQMNSLKPEDTAVYYCAAGKYGTAWITISGYDFWGQGTQVTVSS
B3: Nb6 (VHH)
VHH: QVQLVESGGGLVQAGGSLRLSCAASGNILRLNAMAWYRQAPGKQRELVAYITYKGPTNYAESVKGRFTISRDMAKNTVYLQMNSLKPEDTAAYYCNADYIRTPGPFWGQGTQVTVSS
B4: Nb7 (VHH)
VHH: B3 VHH with Y50D, I51N, Y53F, E61D, P105H
B5: Nb8 (VHH)
VHH: QVQLVESGGGLVQAGGSLRLACVTSGNIFSISFMRWYRQAPGKQRELVATITSGDRTTYADSVKGRFTISRDNAKNTVYLQMNSLEPEDTAVYYCDINGLRYAGIRSWGQGTQVTVSS
B6: Nb14 (VHH)
VHH: QVQLVESGGGLVQAGDSLRLSCAASARTFSIHAMGWFRQAPGKEREFVAAIGWTGGSPDYSDSAKGRFAISRDNAKNTVFLQMNSLKPEDTAVYYCAFHRAGSYDSTTSYDYWGQGTQVTVSS
B7: Nb24 (VHH)
VHH: QVQLVESGGGLVQDGGSLRLSCAASGLTFSSLPMGWFRQAPGKEREFVAAMNWGEISTYYADSVKGRFTISRDNGKKTVYLQMNSLKPEDTAVYTCAADLRYSNLKYSRAGYWGQGTQVTVSS
B8: Nb3 (VHH)
VHH: QVQLVESGGGLVQAGRSLRLSCAASGRSFSIFAVNWWRQAPGNQRELVASITGGGSIRYADSVKGRFTISRDNAENTVYLQMNSLKPEDTAVYYCNTLNFWGQGTQVTVSS
B9: Nb4 (VHH)
VHH: B8 VHH with A33G, W37F, G42E, K64T, T97I
B10: Nb16 (VHH)
VHH: QVQLVESGGGLVQAGGSLRLSCAASGRTVSSKAMGWYRQAPGKQRELVASISTSGSTTVYADSVKGRFTISRDNAKATVYLRMNMLKPEDTAVYYCNYLVGPIDWGQGTQVTVSS
B11: Nb17 (VHH)
VHH: B10 VHH with V59N, K76E, T78P, R82Q, E89G, I103A
B12: Nb20 (VHH)
VHH: QVQLVESGGGLVQAGASLRLSCAASGRTFSSNYMGWFRQAPGKEREFVGAISWTSGSTSYADSVKGRFTISRDKAKNTVDLQMNSLNPDDTAVYYCAAGPSHRLWFSGRTLATYYDYWGQGTQVTVSS
B13: Nb2 (VHH)
VHH: QVQLVESGGGWVQAGGSLRLSCTASGSGFGIFAINWFRQAPGKERELVASLSSIGSPKYAESVKGRFTISRDNAKNTVYLQMNSLKPEDTAVYYCNYLNRWGQGTQVTVSS
B14: Nb27 (VHH)
VHH: QVQLVESGGGLVQAGGSLKLSCAAPGWTVSISYMGWFRQAQGKEREFVGAMSWSDDRISYADSVKGRFTISRDNAKTTVFLQMTSLKPEDTAVYYCAVRRKWSESYDYWGQGTQVTVSS
B15: Nb15 (VHH)
VHH: QVQLVESGGGLVQAGGSLRLSCVASGILFSNNPMAWYRGAPGKQRELVARIWSGGRTIYGDSLKGRVTISRDNAKNTVYLQMNSLQPEDTAVYYCNSPYTNGWGQGTQVTVSS
B16: Nb19 (VHH)
VHH: QVQLVESGGGLVQAGGSLRLSCAASGRTFSSYKMGWFRQAPGKEREFVAAFSWTGLNTNYADSVKGRFTISRDNAKSTVYLQMNSLKPEDTAVYYCAAGLGRTVIAGVDYWGQGTQVTVSS
B17: Nb9 (VHH)
VHH: QVQLVESGGGLVQAGESLRLSCAASGAVFRIFAVNWWRQAPGKQRELVATITSAGDTKYHDSVKGRFTISRDNAKNTVALQMNNLKPEDTAVYQCNVLKYWGQGTQVTVSS
B18: Nb10 (VHH)
VHH: B17 VHH with N73I
B19: Nb22 (VHH)
VHH: QVQLVESGGGLVQPGGSLRLSCAASGTSFSTNVMGWYRQAPGKQRELVARILGGSSTYYADSVKGRFTISRDNDKNTLYLQMNSLKPEDTAVYYCTAGFGPGYWGQGTQVTVSS
B20: Nb23 (VHH)
VHH: B19 VHH with I51M, D74A, L78V, T96A
B21: dimeric S100B (human, recombinant) (natural protein)
chain: MSELEKAMVALIDVFHQYSGREGDKHKLKKSELKELINNELSHFLEEIKEQEVVDKVMETLDNDGDGECDFQEFMAFVAMVTTACHEFFEHE
B22: tetrameric S100B (human, recombinant) (natural protein)
chain: B21 chain
notes: S100B, human, isolated as the tetramer (association of two homodimers); also called S100B-4mer; S100B tetramer; source: E. coli (BL21(DE3) E. Cloni EXPRESS), purified
B23: Nb25 (VHH)
VHH: QVQLVESGGGLVQPGGSLRLSCTVSGIILGSRAMGWYRQTPGKQREFVATISTSGGTTNYADSVKGRFTISRDNAKNTVYLQMNSLKPEDTAIYYCNTLSQVLADRGWGQGTQVTVSS
B24: Nb26 (VHH)
VHH: B23 VHH with Q13R, I28M, L29F, E46D, N74S, I93V, L99V, Q101A, A104L
B25: Nb28 (VHH)
VHH: QVQLVESGGGLVQTGGSLNLSCAPFGTVLSDNDVGWYRQAPGSQRELVAEVDVRGGTNYADSVKGRFTISRDSAKKITFLQMNSLKSEDTAVYYCASDYGLGLLVGLPEYRGQGTQVTVSS
B26: Nb13 (VHH)
VHH: QVQLVESGGGLVQPGGSLMLSCAASGFDFATYPMSWVRQAPGKEPEWIASIFPNGVTQSCADSVLGRFTISRDNTKNTLFLEMDRLKLADTAVYYCSKGGAAQSMFDDYWGQGTQVTVSS
B27: Nb11 (VHH)
VHH: QVQLVESGGGLVQAGGSLRLSCAASASIGIFTVRWWRQAPGKQRALEQRELVAGISGGGTTNFADSVKGRFTISRDNDKKMVYLEMNNLKPEDTAVYYCNYLNSWGQGTQVTVSS

Tests used:
[1] = target: tetrameric S100B (human, recombinant) (human, UniProt P04271)
[2] = target: dimeric S100B (human, recombinant) (Homo sapiens, UniProt P04271)
[3] = target: anti-S100B nanobody Nb12 (llama); assay: BLI; Nbs (20 μg/ml) loaded on Ni-NTA biosensor; S100B dimer or tetramer 25-250 nM in solution; 25 °C; 50 mM Tris-HCl pH 7.4, 150 mM NaCl; global 1:1 fit
Chain of anti-S100B nanobody Nb12 (llama) (heavy, as listed by the source): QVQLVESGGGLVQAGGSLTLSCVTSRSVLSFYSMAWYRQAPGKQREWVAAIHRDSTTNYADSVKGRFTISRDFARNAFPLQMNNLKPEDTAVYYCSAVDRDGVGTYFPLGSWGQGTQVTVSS

[4] = target: T1, VC1 domain of human RAGE (receptor for …); assay: BLI; in the presence of twofold excess Nb1
[5] = target: T1, VC1 domain of human RAGE (receptor for …); assay: BLI; in the presence of twofold excess Nb18
[6] = target: T2, VC1 domain of human RAGE (receptor for advanced glycation end products), biotinylated (human, UniProt Q15109 23-226, biotin (EZ-Link Sulfo-NHS-Biotin)); assay: BLI; biotinylated RAGE-VC1 (25 μg/ml) loaded on streptavidin biosensor; S100B tetramer 50-750 nM in solution (controls: Nbs alone); 25 °C; PBS, 0.1% BSA, 0.05% Tween-20, 1.1 mM CaCl2; global 1:1 fit; details: both partners purified
T2 construct: RAGE, human, V and C1 immunoglobulin-like domains; also called RAGE-VC1; VC1 RAGE; source: E. coli Rosetta-gami B (DE3), purified

[7] = target: T2, VC1 domain of human RAGE (receptor for …); assay: BLI; competition: biotinylated RAGE-VC1 on streptavidin biosensor; S100B tetramer 50-750 nM previously incubated with a twofold excess of Nb; 25 °C; PBS, 0.1% BSA, 0.05% Tween-20, 1.1 mM CaCl2; global 1:1 fit; details: both partners purified

Binder	binding result [1]	binding result [2]	further results
B1	binds		
B2		binds	
B3	binds		
B4	binds		
B5	binds		
B6		binds	
B7		binds	
B8	binds		
B9	binds		
B10		binds	
B11		binds	
B12		binds	
B13	binds		
B14		binds	
B15		binds	
B16		binds	
B17	binds		
B18	binds		
B19		binds	
B20		binds	
B21			Kd [3]: 4000 nM
B22			Kd [4]: 89 nM; Kd [5]: 70 nM; Kd [3]: 800 nM; Kd [6]: ~29 nM; fold increase of KD after incubation with Nb1, against S100B-4mer alone [7]: 3 fold; fold increase of KD after incubation with Nb18, against S100B-4mer alone [7]: 2.4 fold
B23		binds	
B24		binds	
B25		binds	
B26	binds		
B27	binds		

— PMC11667159 (The Journal of Biological Chemistry, 2024)
